Assay results from paper doi:10.1101/836718, “A unique conformational escape reaction of HIV-1 against an allosteric integrase inhibitor” (bioRxiv, 2019).

Key:
[1] = biological target: the molecule itself; assay: SEC; HPLC, TSKgel-SWXLG3000 column; INHis at 50 µM; running buffer 20 mM HEPES pH 7.4, 750 mM NaCl, 3.75 mM CHAPS; 4°C as possible; self-association (tetramer, dimer, monomer)
[2] = biological target: T1, His-tagged lens epithelium-derived growth factor p75 (LEDGF/p75) (human (sequence derived from 293T cells), UniProt O75475 1-530); assay: pull-down; F-IN (2 µM) and LEDGF/p75His (2 µM) 30 min at RT in 50 mM HEPES pH 7.0, 300 mM NaCl, 2 mM MgCl2, 2 mM BME, 5% glycerol, 0.2% NP-40, 20 mM imidazole; His 60 Ni resin; wash with 1 M NaCl; Coomassie staining; details: both partners purified
T1 construct: also called LEDGFHis; LEDGF/p75His; source: E. coli Rosetta (DE3) pLysS, purified (His-TALON column); not shown: His6, N-terminal, kept
T1 sequence (O75475 whole entry): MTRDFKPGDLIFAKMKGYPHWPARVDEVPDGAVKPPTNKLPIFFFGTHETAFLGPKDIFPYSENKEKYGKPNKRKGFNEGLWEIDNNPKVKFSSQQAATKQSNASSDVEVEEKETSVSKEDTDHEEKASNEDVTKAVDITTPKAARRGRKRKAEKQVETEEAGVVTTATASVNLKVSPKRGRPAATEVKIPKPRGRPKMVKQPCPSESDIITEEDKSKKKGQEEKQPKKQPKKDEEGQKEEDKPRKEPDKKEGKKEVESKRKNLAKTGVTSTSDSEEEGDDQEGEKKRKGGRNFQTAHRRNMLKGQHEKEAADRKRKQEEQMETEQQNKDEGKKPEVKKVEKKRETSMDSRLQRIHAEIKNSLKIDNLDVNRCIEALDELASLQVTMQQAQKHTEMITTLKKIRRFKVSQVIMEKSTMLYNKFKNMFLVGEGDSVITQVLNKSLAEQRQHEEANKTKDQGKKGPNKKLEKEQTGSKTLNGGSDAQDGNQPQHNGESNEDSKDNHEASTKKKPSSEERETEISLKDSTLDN

| Binder | stoichiometry N [1] | binding result [2] |
| --- | --- | --- |
| recombinant His-tagged HIV-1 integrase, wild type (IN^WT) (enzyme, pET30a IN-6xHis; also called INHis; IN-6xHis; source: E. coli Rosetta (DE3) pLysS, purified (His-TALON column); not shown: His6, C-terminal, kept) FLDGIDKAQEEHEKYHSNWRAMASDFNLPPVVAKEIVASCDKCQLKGEAMHGQVDCSPGIWQLDCTHLEGKVILVAVHVASGYIEAEVIPAETGQETAYFLLKLAGRWPVKTVHTDNGSNFTSTTVKAACWWAGIKQEFGIPYNPQSQGVIESMNKELKKIIGQVRDQAEHLKTAVQMAVFIHNFKRKGGIGGYSAGERIVDIIATDIQTKELQKQITKIQNFRVYYRDSRDPVWKGPAKLLWKGEGAVVIQDNSDIKVVPRRKAKIIRDYGKQMAGDDCVASRQDED | 2 | – |
| Flag-tagged HIV-1 integrase, wild type (F-IN^WT) (enzyme, pET30a Flag-IN; also called Flag-IN; source: E. coli Rosetta (DE3) pLysS, purified (by previous reports, Kessl et al., 2012); not shown: FLAG, N-terminal, kept) FLDGIDKAQEEHEKYHSNWRAMASDFNLPPVVAKEIVASCDKCQLKGEAMHGQVDCSPGIWQLDCTHLEGKVILVAVHVASGYIEAEVIPAETGQETAYFLLKLAGRWPVKTVHTDNGSNFTSTTVKAACWWAGIKQEFGIPYNPQSQGVIESMNKELKKIIGQVRDQAEHLKTAVQMAVFIHNFKRKGGIGGYSAGERIVDIIATDIQTKELQKQITKIQNFRVYYRDSRDPVWKGPAKLLWKGEGAVVIQDNSDIKVVPRRKAKIIRDYGKQMAGDDCVASRQDED | – | binds |
